Assay results taken from patent US7989587B2, “SSX-2 peptides presented by HLA class II molecules” (Ludwig Institute for Cancer Research Ltd., priority 1999, dated 2011).

What was measured:
Type in all cases: cell-based, human
T cells = assay: BrdU proliferation assay of T cells with peptide or protein loaded autologous dendritic cells
Protocol: The peptides were then combined with autologous dendritic cells. These were obtained by isolating peripheral blood mononuclear cells (“PBMCs”), from HLA-DR+donors, using Ficoll-Hypaque methods. These PBMCs were then incubated for 1-2 hours at 37° C., on plastic surfaces. Adherent monocytes were then cultured for 5 days in medium that had been supplemented with interleukin-4 (IL-4) and GM-CSF. To elaborate, AIMV medium supplemented with 1000 U/ml of IL-4, and 1000 U/ml of GM-CSF was used. This incubation stimulates differentiation into dendritic cells.
Samples of dendritic cells (8×10^5) were then loaded with 50 μg/ml of […] added peptide. The loading proceeded for 2 hours, at 37° C., in medium supplemented with 1000 U/ml of TNF-α and 10,000 U/ml of IL-1β. Peptide pulsed dendritic cells were then washed twice, in excess peptide free medium. Then, autologous peripheral blood lymphocytes (4×10^7) were combined with 8×10^5 peptide loaded dendritic cells (ratio of 50:1), in medium which contained 5 ng/ml of IL-7 and 20 U/ml of IL-2. Incubation was carried out at 37° C.
Cultures were restimulated weekly with peptide loaded, irradiated PBMCs.
The ability of the peptides to form complexes with HLA-DR molecules and to stimulate CD4^+ cell proliferation was determined by measuring BrdU uptake.
The specificity of the resulting CD4^+ cells was then tested by combing them with autologous dendritic cells that had been loaded with peptide, admixed with full length recombinant SSX-2 protein, or with an unrelated protein.
The results presented in Example 4 led to additional experiments using T cells that had been isolated from two donors using standard protocols. In these experiments, autologous dendritic cells were prepared, as described, and combined with T cells whose proliferation was determined in a BrdU assay. […] The SSX-2 full length molecule provoked just slightly less than 60% proliferation, while the peptide mixture provoked about 85% proliferation.

CD4^+ T-cells = assay: IFN-γ ELISPOT assay of peptide-primed CD4+ T-cells; conditions: T-cells prestimulated with p45-59; autologous and allogeneic DC
Protocol: PBMC from patients were isolated by Ficoll-Paque™ PLUS separation (Amersham Pharmacia Biotech AB, Uppsala, Sweden). For in-vitro priming, 1×10^7 and 2×10^6 unseparated PBMC, respectively, were suspended in 500 μl serum-free medium (X-Vivo 15 (Biowhittaker Europe s.p.r.l., Verviers, Belgium) supplemented with 2 mM L-glutamine (Gibco) and 1% penicillin/streptomycin (Gibco). For pulsing, the pool of the 3 SSX2-derived peptides (each at a concentration of 2 μg/ml) was added to the suspension of 1×10^7 cells, while the suspension of 2×10^6 PBMC was pulsed with the mix of 7 peptides (each at 2 μg/ml) derived from the pp65 antigen of the human CMV. Pulsing was performed for 90-120 minutes at 37° C. Thereafter the pulsed cells were washed once with serum-free medium and suspended for cultivation in X-Vivo 15 T-cell medium (Biowhittaker) supplemented with 10% human AB serum (Biowhittaker) and 6.7 ng/ml IL-7 (R&D systems). The 1×10^7 SSX2-pulsed PBMC were suspended in 3.75 ml T-cell medium and plated into 5 wells (0.75 ml/well) of a 48-well Nuncclone™ plate (Nunc GmbH & Co KG.). The 2×10^6 pp65-pulsed PBMC were plated into 1 well (0.75 ml). The remaining PBMC from the patients or donors, respectively, were divided into at least 3 aliquots of 1×10^7 PBMC and frozen until used for restimulation and in the T-cell assays. The peptide-pulsed PBMC which served both as APC and as a source for the T-cells to be used in the ELISPOT assay, were cultured at 37° C. One day after the stimulation was started, each well was supplemented with 250 μl X-Vivo 15 medium supplemented with 80 U/ml IL-2 (R&D Systems) resulting in a final concentration of 20 U/ml IL-2. The cells were incubated for 6 days under occasional microscopic control. On day 7 and before each ELISPOT assay, respectively, the percentage of CD4^+ T-cells in the culture well was determined. On day 7, cells were restimulated with autologous PBMC that had been pulsed with the appropriate peptides under the same conditions as described for day 0/1 at a CD4^+/APC ratio of 1:1. On day 14, the first ELISPOT assay was performed. To this end, the cultured cells were harvested from the respective wells and the primed CD4^+ cells were used as effectors in the ELISPOT assay. The remaining cells were restimulated once more using conditions as described before. […] no specific reactivity was shown by day 21, the stimulation was repeated weekly until all CD4^+ cells were consumed.
At least three IFN-γ ELISPOT assays were performed on days 14, 21 and 28, respectively. All tests were run in triplicates in order to determine mean values and standard deviations. Assays were performed in nitrocellulose-lined 96-well plates (MAHA S45 by Millipore, Bedford Mass., USA). The wells were pre-coated overnight with PBS (50 μl/well) containing an anti-IFN-γ capture antibody at the dilution recommended in the supplier's instructions (Mabtech AB, Nacka, Sweden). To block unspecific binding, the wells were then incubated with 10% human AB^+ serum for 1 h at 37° C. For the priming of effector cells, 2.5×10^4 CD4^+ T-cell were harvested, washed once to remove the cytokines, and were tested for specific recognition of the corresponding antigen. To this end, peptide-primed CD4^+ cells were harvested, washed once to remove cytokines, resuspended, and 50 μl of the cell suspension in X-Vivo 15 medium were added to each well. […]

[1] = test system: SSX-2 37-51 specific DR3 restricted CD4+ T cells; assay: Recognition of recombinant protein loaded EBV cells, IFN-γ ELISA; conditions: FIG. 9C, FIG. 10C
Protocol: For intracellular cytokine secretion detection, T cells were stimulated in the absence or in the presence of peptides at the indicated dose during 4 h as described previously (Ayyoub M, et al., J Clin Invest., 2004; 113 (8): 1225-33, see examples above). One hour after the beginning of the incubation, Brefeldin A ([…], Sigma) was added to inhibit cytokine secretion. After incubation, cells were stained with anti-CD4 mAb (BD Biosciences, San Diego, Calif.) for 20 min at 4° C. and fixed using formaldehyde, permeabilized with saponine (Sigma, 0.1% in PBS 5% FCS), stained with anti IFN-γ mAb (BD Biosciences) and analyzed by flow cytometry. Data analysis was performed using Cell Quest software. IFN-γ secretion was assessed as described (Ayyoub M, et al., J Clin Invest., 2004; 113 (8): 1225-33). T cells (10,000/well) and EBV transformed B cells (EBV) used as antigen-presenting cells (APC, 10,000/well) were incubated in the absence or in the presence of peptides at the indicated dose in 96-well round-bottom plates in […] of medium. In some experiments tumor cells were used as APC. […] After 24 h incubation at 37° C., culture supernants were collected and the content of IFN-g determined by ELISA (BioSource International, Camarillo, Calif., USA). […]

B1: SSX-2 full length molecule: full length recombinant SSX-2 protein (protein, UniProt Q16385 1-188, looked up)
chain: MNGDDAFARRPTVGAQIPEKIQKAFDDIAKYFSKEEWEKMKASEKIFYVYMKRKYEAMTKLGFKATLPPFMCNKRAEDFQGNDLDNDPNRGNQVERPQMTFGRLQGISPKIMPKKPAEEGNDSEEVPEASGPQNDGKELCPPGKPTTSEKIHERSGPKRGEHAWTHRLRERKQLVIYEEISDPEEDDE
modifications: full-length
notes: full length recombinant SSX-2 protein
T cells; first set of experiments, mixture of the 5 peptides of Example 4 compared to equal amount of protein
  proliferation: less than 60%
T cells; six individual experiments, versus other peptides or TALL
  T cell proliferation induced by pulsed dendritic cells: greater T cell proliferation
CD4^+ T-cells
  T-cell response to dendritic cells pulsed with whole protein: induced a significant T-cell response
[1]
  processing and presentation of recombinant protein by DR3+ EBV cells, recognition by specific CD4+ T cells: efficiently process
